In US7943319B2, “Utility of RET mutant in diagnosis and treatment of melanoma” (John Wayne Cancer Institute, priority 2007, dated 2011):
“Also recorded” adds a separate entry of the source. One block for each molecule: values may come before it.

What was measured:
[1] = biological target: RET G691S mutant (RETmt), endogenous on melanoma cells (human) (UniProt P07949); assay: cell-based or functional assay
[2] = biological target: RET (Homo sapiens, UniProt P07949); conditions: cited from earlier work
[3] = test system: RETmt thyroid cancers; conditions: cited from earlier work
[4] = test system: ME7 cells (RETmt/BRAFwt); assay: Blocking assay of GDNF-induced proliferation; format: cell-based, human; conditions: pre-treated 60 min with 10 μM PD98059 or 100 nM wortmannin, then 25 ng/ml GDNF for 72 hrs
Protocol: (§1) Cell proliferation 48 and 72 hrs after GDNF treatment (5, 25 or 50 ng/ml, dissolved in water) in serum-free medium was analyzed by 3-(4,5-dimethylthiazol-2-yl)-2,5-diphenyltetrazolium bromide (MTT) and direct cell counting with a light microscope, respectively. MTT (0.4 mg/ml, Sigma-Aldrich, St. Louis, Mo.) was added into culture wells after washing with PBS. The converted dye was dissolved with DMSO 2 hrs after incubation at 37° C. and the absorbance was measured at a wavelength of 550 nm with a microplate reader (Bio-Rad). For cell counting, cells were harvested after washing with PBS and the number of cells was counted using a hemocytometer under a microscope. In blocking assays, cells were pre-treated with 10 μM of a MEK1 inhibitor, PD98059 (Cell Signaling Technology), or 100 nM of a PI3K inhibitor, wortmannin (Cell Signaling Technology), for 60 min before treatment of GDNF as indicated in the instructions from the company, and followed by 25 ng/ml of GDNF treatment for 72 hrs. To avoid the effect of the delivery agent on cells, PD98059 and wortmannin were dissolved in PBS, and the same amount of PBS was added to control (GDNF(−)) and GDNF-treated cells.

[5] = test system: melanoma cells (RETmt and RETwt); assay: Cell proliferation by GDNF (MTT assay); format: cell-based, human; conditions: 48-hr exposure to GDNF, serum-free medium
Protocol: as §1

[6] = test system: melanoma cells (RETmt and RETwt); assay: Migration assay (Transwell chamber) with GDNF; format: cell-based, human; conditions: RETmt cells compared with RETwt cells; 5 or 25 ng/ml GDNF, 48 hrs
Protocol: Migration ability of the melanoma cells was determined with a modified technique using a Transwell® chamber with a microporous membrane (membrane diameter 6.5 mm, pore size 8 μm, CORNING, Corning, N.Y.) (29). Melanoma cells were seeded in the upper chamber with RPMI 1640 culture medium (Invitrogen) with 2% fetal bovine serum (FBS). The lower chamber contained RPMI 1640 culture medium with 2% FBS and 5 or 25 ng/ml of GDNF. The cells that migrated through the membrane and adhered to the bottom of lower chamber were fixed with 80% ethanol and stained with hematoxylin 48 hrs after incubation at 37° C. The number of stained cells was counted in a total of 5 fields under a microscope with 200× magnification. In blocking assays, cells were pre-treated with wortmannin (100 nM) for 60 min before treatment of GDNF as indicated in the instructions from the company and followed by treatment with 25 ng/ml GDNF for 48 hrs. To avoid the effect of the delivery agent on cells, wortmannin was dissolved in PBS, and the same amount of PBS was added to control (GDNF(−)) and GDNF-treated cells.

[7] = test system: melanoma cells (RETmt and RETwt); assay: QCM Collagen-based Invasion Assay with GDNF; format: cell-based, human; conditions: RETmt cells compared with RETwt cells; 25 ng/ml GDNF, 60 hrs
Protocol: Invasion ability of the melanoma cells was analyzed using QCM™ Collagen-based Invasion Assay MILLIPORE, Billerica, Mass.), as described in previous reports (27, 29). Cells were seeded in the upper chamber with RPMI 1640 culture medium (Invitrogen) with 2% FBS containing GDNF. The lower chamber contained RPMI 1640 culture medium with 5% FBS and GDNF with same concentration as the upper chamber (25 ng/ml). Cells invading the collagen-coated membrane were fixed and stained 60 hrs after incubation at 37° C. using reagents provided by MILLIPORE, according to the manufacturer's instructions. Stained cells were dissolved with a provided reagent and measured at a 550 nm wavelength with a microplate reader (Bio-Rad). In the blocking assay, cells were pre-treated with 1 μg/ml of a goat anti-human polyclonal RET-specific Ab, which binds to the extracellular domain of RET (R&D Systems), or 1 μg/ml control goat IgG (Santa Cruz Biotechnology) as a control 60 min before treatment with GDNF and followed by treatment with 25 ng/ml GDNF for 60 hrs.

[8] = test system: ERK1/2; assay: Western blotting of phosphorylated ERK1/2 after GDNF; format: cell-based, human; conditions: 25 ng/ml GDNF
Protocol: (§2) Cells were washed twice with ice-cold phosphate-buffered saline (PBS) and dissolved in solubilizing buffer (pH 7.5, 20 mM Tris-HCL, 12.5 mM β-glycerophosphate, 2 mM EGTA, 10 mM NaF, 1 mM benzamide, 1% NP-40, 1 mM Na3VO4, 1× protease inhibitor mix) after treatment with 25 μg human recombinant GDNF (Chemicon International, Temecula, Calif.). Each aliquot of protein (10 μg) was subjected to Western blotting analysis. After electrophoresis on 12.5% polyacrylamide gels, the protein was transblotted to Hybond™-P (Amersham Life Sciences, Inc., Arlington Heights, Ill.) in transfer buffer (192 mM glycine, 25 mM Tris, 2.5 mM SDS, and 10% methanol). The blots were blocked with 5% non-fat dry milk, and then incubated with anti-ERK 1/2 rabbit polyclonal Ab, or anti-phosphorylated ERK 1/2 rabbit polyclonal Ab (1:1000, Phosphoplus® p44/42 MAP Kinase (Thr202/Tyr204) Antibody kit, Cell Signaling Technology, Danvers, Mass.), and then incubated with an horse radish peroxidase (HRP)-conjugated anti-rabbit IgG Ab (1:2000, Cell Signaling Technology). As for Western blotting of Akt, anti-Akt rabbit polyclonal Ab, or anti-phosphorylated Akt rabbit polyclonal Ab (1:500, Phosphoplus® Akt (Ser473) Antibody Kit, Cell Signaling Technology) and a secondary Ab, HRP-conjugated anti-rabbit IgG Ab (1:1000), were used. Subsequently, the blots were developed with ECL Plus Western blotting Detection system (GE Healthcare Life Sciences, Piscataway, N.J.) according to the manufacturer instructions.

[9] = test system: Akt; assay: Western blotting of phosphorylated Akt after GDNF; format: cell-based, human; conditions: 25 ng/ml GDNF
Protocol: as §2

[10] = test system: melanoma cells (ME1, ME7, ME3); assay: Actin polymers staining by Alexa Fluor 568 phalloidin; format: cell-based, human; conditions: 10 ng/ml GDNF, 48 hrs
Protocol: Melanoma cells were seeded in BD BioCoat™ CultureSlides (BD Biosciences, San Jose, Calif.). Cells were washed twice with PBS and fixed with 3.7% formaldehyde solution in PBS for 10 min at room temperature after a 48 hr incubation with GDNF (10 ng/ml) at 37° C. Fixed cells were stained with 1 U/200 μl of PBS Alexa Fluor® 568 phalloidin (Invitrogen) for 20 min at room temperature. After washing twice with PBS, actin polymers were observed using fluorescence microscopy with 400× magnification.

RET, sequence (P07949 29-1114): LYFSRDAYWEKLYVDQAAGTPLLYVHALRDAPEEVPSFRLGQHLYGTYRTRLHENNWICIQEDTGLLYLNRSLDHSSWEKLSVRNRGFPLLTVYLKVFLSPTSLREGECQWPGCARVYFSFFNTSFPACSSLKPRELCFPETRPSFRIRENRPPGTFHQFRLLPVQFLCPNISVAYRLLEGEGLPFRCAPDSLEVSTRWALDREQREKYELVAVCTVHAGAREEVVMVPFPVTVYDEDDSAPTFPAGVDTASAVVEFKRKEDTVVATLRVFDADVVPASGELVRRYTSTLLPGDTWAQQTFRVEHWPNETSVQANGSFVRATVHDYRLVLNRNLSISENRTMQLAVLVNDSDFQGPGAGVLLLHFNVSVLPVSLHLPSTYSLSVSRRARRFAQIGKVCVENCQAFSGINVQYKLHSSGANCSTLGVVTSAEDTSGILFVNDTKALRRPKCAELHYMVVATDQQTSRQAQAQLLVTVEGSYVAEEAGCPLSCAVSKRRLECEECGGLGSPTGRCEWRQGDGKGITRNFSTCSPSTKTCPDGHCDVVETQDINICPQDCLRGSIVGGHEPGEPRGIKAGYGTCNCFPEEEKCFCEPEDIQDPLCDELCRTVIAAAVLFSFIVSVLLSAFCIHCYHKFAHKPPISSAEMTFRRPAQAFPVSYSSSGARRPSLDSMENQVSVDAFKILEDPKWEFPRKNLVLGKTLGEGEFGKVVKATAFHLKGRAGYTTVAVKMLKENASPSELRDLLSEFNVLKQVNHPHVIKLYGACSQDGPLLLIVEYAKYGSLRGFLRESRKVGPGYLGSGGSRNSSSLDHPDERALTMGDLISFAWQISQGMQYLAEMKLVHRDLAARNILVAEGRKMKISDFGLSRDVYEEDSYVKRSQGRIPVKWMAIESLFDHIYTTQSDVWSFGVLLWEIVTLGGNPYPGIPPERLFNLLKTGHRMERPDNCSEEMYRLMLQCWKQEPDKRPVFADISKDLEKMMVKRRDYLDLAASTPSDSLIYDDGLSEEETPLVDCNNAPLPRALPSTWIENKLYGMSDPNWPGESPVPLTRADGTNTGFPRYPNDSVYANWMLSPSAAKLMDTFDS
RET G691S mutant (RETmt), endogenous on melanoma cells (human), sequence (P07949 29-1114 G691S): as the sequence (P07949 29-1114) above, with G663S counted along it

suppression by RET siRNA of GDNF-induced cell proliferation in ME1 (MTT assay) [1]: > 80%
Molecule: human recombinant GDNF (glial cell line-derived neurotrophic factor) (from UniProt P39905 78-211) (ligand)

Molecule: CNC(=O)c1cc(Oc2ccc(NC(=O)Nc3ccc(Cl)c(C(F)(F)F)c3)cc2)ccn1 [Sorafenib]
RET signaling [2]: can block | kinase activity of RET [2]: directly suppresses | lysosomal degradation of RET protein [2]: promotes | growth of RETmt thyroid cancers [3]: suppress growth

Molecule: COc1cccc(-c2cc(=O)c3ccccc3o2)c1N [PD98059]
suppression of GDNF-induced proliferation [4]: significantly blocked; also recorded: completely suppressed

B1: GDNF: human recombinant GDNF (Chemicon International), major ligand of RET (protein)
chain: SPDKQMAVLPRRERNRQAAAANPENSRGKGRRGQRGKNRGCVLTAIHLNVTDLGLGYETKEELIFRYCSGSCDAAETTYDKILKNLSRNRRLVSDKVGQACCRPIAFDDDLSFLDDNLVYHILRKHSAKRCGCI
cell proliferation on GDNF exposure ([5]; RETmt melanoma cells): enhanced proliferation | cell proliferation on GDNF exposure ([5]; RETwt melanoma cells): but not RETwt melanoma cells | migration after GDNF stimulation [6]: more vigorous | invasion after GDNF stimulation [7]: more vigorous | phosphorylation of ERK1/2 ([8]; ME1 (RETmt/BRAFmt), ME7 (RETmt/BRAFwt)): more intense phosphorylation; also recorded: strongly phosphorylated | duration of phosphorylation of ERK1/2 ([8]; ME1, ME7): 60 min | time to strong phosphorylation of ERK1/2 after treatment ([8]; ME1, ME7): ≤ 15 min | phosphorylation of ERK1/2 ([8]; ME3 (RETwt/BRAFwt)): weak phosphorylation | phosphorylation of Akt ([9]; ME1 (RETmt/BRAFmt), ME5 (RETmt/BRAFwt)): strongly phosphorylated | duration of phosphorylation of Akt ([9]; ME1, ME5): 60 min | time to strong phosphorylation of Akt after treatment ([9]; ME1, ME5): ≤ 15 min | phosphorylation of Akt ([9]; ME3 (RETwt/BRAFwt)): weak phosphorylation | actin polymerization (filopodia) ([10]; RETmt cell lines ME1, ME7): induced intensely; also recorded: induced filopodia | actin polymerization (filopodia) ([10]; RETwt cell line ME3): no actin polymerization induced
